Patent publication US20230071371A1 (Scripps Research, published 2023)
Each block holds one molecule with its values, some of them ahead of it. Bridges are numbered along the chain shown (N, C = ends). Where no end group is shown, it is not given here. [ ]: non-standard residue; d: D form. L5A = not defined here; Aib = CC(C)(N)C(=O)O

Assays:
[1] = biological target: T1, human GLP-1R (human, UniProt P43220 24-463)
Target sequence in this assay (P43220 24-463): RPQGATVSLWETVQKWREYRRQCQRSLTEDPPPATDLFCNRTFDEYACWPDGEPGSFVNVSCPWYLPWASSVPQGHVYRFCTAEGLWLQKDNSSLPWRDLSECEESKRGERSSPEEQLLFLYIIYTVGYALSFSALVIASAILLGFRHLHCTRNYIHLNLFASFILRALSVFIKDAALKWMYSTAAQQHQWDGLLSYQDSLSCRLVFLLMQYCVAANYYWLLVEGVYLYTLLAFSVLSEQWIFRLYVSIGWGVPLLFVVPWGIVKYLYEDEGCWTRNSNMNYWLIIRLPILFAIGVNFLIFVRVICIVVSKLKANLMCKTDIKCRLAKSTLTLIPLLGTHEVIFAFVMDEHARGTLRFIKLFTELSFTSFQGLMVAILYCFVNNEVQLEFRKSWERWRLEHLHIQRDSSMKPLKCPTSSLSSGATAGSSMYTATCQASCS

[2] = biological target: rat serum albumin (rat) (UniProt P02770); assay: calculated from the SPR affinity
[3] = biological target: human serum albumin (human) (UniProt P02768); assay: calculated from the SPR affinity
[4] = biological target: T2, human GIPR (human, UniProt P48546 22-466)
T2 sequence (looked up): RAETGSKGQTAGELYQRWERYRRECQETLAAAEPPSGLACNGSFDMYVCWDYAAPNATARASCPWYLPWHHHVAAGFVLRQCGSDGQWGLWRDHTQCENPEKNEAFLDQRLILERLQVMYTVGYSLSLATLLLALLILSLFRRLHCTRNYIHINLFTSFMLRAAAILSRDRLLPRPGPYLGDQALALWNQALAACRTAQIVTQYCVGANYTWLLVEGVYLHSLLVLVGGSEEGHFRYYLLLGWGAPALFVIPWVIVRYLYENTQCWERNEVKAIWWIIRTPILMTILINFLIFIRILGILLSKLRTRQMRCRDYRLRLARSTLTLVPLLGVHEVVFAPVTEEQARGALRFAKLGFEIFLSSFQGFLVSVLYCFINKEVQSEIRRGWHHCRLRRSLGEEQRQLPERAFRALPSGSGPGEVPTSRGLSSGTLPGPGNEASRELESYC

[5] = biological target: T1, human GLP-1R; assay: cell-based or functional assay

Sequence of rat serum albumin (rat) (P02770 25-608 limits assumed): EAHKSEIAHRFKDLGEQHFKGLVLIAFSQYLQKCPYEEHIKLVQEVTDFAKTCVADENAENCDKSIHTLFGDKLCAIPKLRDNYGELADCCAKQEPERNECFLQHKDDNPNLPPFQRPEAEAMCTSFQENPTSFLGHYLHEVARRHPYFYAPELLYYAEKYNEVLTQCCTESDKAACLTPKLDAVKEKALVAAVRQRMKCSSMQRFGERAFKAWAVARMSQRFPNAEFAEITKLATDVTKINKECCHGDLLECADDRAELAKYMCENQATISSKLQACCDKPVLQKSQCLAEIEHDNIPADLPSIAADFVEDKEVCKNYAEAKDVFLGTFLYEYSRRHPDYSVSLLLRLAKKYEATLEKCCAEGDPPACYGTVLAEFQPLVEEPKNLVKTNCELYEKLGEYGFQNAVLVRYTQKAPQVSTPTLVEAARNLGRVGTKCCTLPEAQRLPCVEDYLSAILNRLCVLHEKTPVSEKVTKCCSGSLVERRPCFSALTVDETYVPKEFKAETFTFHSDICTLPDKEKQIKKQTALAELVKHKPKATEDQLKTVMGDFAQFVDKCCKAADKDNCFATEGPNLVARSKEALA
Sequence of human serum albumin (human) (P02768 25-609 limits assumed): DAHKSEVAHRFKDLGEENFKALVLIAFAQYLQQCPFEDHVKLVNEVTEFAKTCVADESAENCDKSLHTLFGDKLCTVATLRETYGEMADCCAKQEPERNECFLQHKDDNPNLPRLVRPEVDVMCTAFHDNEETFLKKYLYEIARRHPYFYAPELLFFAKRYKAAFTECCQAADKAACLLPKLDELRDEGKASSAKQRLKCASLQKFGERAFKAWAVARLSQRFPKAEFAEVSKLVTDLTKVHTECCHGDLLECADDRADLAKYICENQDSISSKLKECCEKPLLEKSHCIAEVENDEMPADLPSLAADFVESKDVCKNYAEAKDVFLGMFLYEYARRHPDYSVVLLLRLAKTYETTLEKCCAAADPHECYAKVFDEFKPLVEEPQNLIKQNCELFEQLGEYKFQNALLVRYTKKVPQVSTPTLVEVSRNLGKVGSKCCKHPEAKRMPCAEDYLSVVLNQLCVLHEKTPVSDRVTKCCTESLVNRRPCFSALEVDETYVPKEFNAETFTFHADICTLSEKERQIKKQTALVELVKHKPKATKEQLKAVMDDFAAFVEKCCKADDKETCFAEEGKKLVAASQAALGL

- EC50 (read off the curve), CRE-luciferase reporter, GLP1R-Creluc [1]: 0.2 nM
Molecule: Tirzepatide (peptide)

- fu (unbound fraction) [2]: 3.3%
- fu (unbound fraction) [3]: 0.69%
Molecule: semaglutide (peptide)

- EC50 (read off the curve), CRE-luciferase reporter, GIPR Creluc [4]: 0.008 nM
Molecule: NNC0090-2746 (peptide)

- EC50 Cre-Luc [5]: 7.3 nM
B1: Conjugate 186 (peptide)
peptide: H[Aib]EGTFTSDVSSYLEGCAAKEFICWLVKGRG-OH
modifications: linker 17-24 via L5A; reading uncertain
